Data set [1] deals with T1, UBP (Sulfolobus islandicus REY15A, UniProt F0NFD3 1-111).
T1 sequence: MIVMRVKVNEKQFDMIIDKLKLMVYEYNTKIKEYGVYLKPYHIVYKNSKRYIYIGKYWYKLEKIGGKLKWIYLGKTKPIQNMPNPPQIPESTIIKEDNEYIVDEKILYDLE
Briefly: EMSA; EMSA: 50 mM K-acetate, 20 mM Tris-acetate, 10 mM Mg-acetate, 1 mM DTT, pH 7.9, 5-10% glycerol, 70 mM NaCl, 800 ng salmon sperm DNA per 10 ul, room temperature 10 min; footprinting same buffer, 4% glycerol, 8000 ng salmon sperm DNA; pull-down 25 mM HEPES pH 7.5, 150 mM NaCl, 10 mM MgCl, 100 uM ZnCl, 10 mM DTT, 48 C. As to conditions: protein: recombinant; tags: MBP tag removed by Factor Xa; 3 extra vector residues at N-terminus; chain copies: 2; label: 5'-32P; blunt. (A gel shift assay detects complexes by their altered migration in electrophoresis.)

A further data set concerns the target T2, UBP (DNA co-crystal) (Sulfolobus islandicus REY15A, UniProt F0NFD3 1-111).
T2 sequence: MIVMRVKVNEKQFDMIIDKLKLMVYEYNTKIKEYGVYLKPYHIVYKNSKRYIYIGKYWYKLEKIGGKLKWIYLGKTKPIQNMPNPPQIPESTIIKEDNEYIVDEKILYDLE
The data set can be described thus: X-ray crystallography; 1.8 A; EMSA: 50 mM K-acetate, 20 mM Tris-acetate, 10 mM Mg-acetate, 1 mM DTT, pH 7.9, 5-10% glycerol, 70 mM NaCl, 800 ng salmon sperm DNA per 10 ul, room temperature 10 min; footprinting same buffer, 4% glycerol, 8000 ng salmon sperm DNA; pull-down 25 mM HEPES pH 7.5, 150 mM NaCl, 10 mM MgCl, 100 uM ZnCl, 10 mM DTT, 48 C. As to conditions: protein: recombinant; tags: MBP tag removed by Factor Xa; 3 extra vector residues at N-terminus; blunt.

The target in data set [2] is T3, MCM replicative helicase, full-length recombinant (Sulfolobus islandicus REY15A, UniProt F0NF15 1-686).
T3 construct: MCM replicative helicase, Sulfolobus islandicus REY15A, SiRe_1228; The introduction and discussion call archaeal MCM a homohexamer (cited work); also called full-length MCM; recombinant MCM
T3 sequence (looked up): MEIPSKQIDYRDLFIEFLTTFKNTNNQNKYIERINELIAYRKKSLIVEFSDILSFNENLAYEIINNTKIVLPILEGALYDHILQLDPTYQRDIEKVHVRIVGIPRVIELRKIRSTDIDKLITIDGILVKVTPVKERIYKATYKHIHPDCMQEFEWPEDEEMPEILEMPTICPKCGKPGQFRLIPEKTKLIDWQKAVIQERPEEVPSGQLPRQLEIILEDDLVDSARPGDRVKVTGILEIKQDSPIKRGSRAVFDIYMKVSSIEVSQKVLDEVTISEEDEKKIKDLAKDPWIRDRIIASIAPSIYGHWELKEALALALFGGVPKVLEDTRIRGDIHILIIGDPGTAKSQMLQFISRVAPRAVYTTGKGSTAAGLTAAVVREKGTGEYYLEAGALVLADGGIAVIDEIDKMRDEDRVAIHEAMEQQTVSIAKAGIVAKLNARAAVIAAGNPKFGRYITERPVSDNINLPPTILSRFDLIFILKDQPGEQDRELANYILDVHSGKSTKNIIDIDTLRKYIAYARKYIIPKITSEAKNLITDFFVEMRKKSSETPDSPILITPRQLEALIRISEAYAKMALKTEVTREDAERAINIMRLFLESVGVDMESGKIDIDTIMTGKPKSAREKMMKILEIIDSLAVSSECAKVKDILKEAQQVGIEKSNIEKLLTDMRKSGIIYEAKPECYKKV
Briefly: MCM recruitment (in vitro loading) assay on bead-bound origin DNA; 200 pM DNA on magnetic beads, UBP and/or Orc1-1 E147A 1 µM, 2 mM ATP, 50 °C, MCM 12.9 nM; washes with binding buffer and with 500 mM potassium acetate; western blot. The following applies: both partners purified.

The target in data set [3] is T1, UBP. Briefly: EMSA; 370 nM UBP; EMSA: 50 mM K-acetate, 20 mM Tris-acetate, 10 mM Mg-acetate, 1 mM DTT, pH 7.9, 5-10% glycerol, 70 mM NaCl, 800 ng salmon sperm DNA per 10 ul, room temperature 10 min; footprinting same buffer, 4% glycerol, 8000 ng salmon sperm DNA; pull-down 25 mM HEPES pH 7.5, 150 mM NaCl, 10 mM MgCl, 100 uM ZnCl, 10 mM DTT, 48 C. As to conditions: protein: recombinant; tags: MBP tag removed by Factor Xa; 3 extra vector residues at N-terminus; chain copies: 2; label: 5'-32P; blunt.

For another data set, the target named is T4, MCM (UniProt F0NF15 1-686).
T4 sequence: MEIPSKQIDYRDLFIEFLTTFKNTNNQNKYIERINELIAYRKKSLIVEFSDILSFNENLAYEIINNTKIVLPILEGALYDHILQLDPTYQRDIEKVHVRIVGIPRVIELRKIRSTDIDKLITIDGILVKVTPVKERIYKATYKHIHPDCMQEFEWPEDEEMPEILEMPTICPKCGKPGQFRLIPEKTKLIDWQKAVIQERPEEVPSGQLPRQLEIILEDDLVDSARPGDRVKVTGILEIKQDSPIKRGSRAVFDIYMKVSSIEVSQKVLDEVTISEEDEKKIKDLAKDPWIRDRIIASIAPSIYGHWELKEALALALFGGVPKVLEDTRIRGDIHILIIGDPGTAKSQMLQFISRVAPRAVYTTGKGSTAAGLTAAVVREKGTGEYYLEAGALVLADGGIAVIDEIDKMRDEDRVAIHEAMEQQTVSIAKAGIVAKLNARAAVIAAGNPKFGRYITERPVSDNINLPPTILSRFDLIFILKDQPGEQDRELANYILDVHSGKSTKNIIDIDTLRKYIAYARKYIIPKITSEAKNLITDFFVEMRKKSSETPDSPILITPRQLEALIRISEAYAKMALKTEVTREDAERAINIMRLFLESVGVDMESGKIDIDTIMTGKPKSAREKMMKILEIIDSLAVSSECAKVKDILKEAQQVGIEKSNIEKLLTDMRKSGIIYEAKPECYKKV
The data set can be described thus: EMSA; without UBP; EMSA: 50 mM K-acetate, 20 mM Tris-acetate, 10 mM Mg-acetate, 1 mM DTT, pH 7.9, 5-10% glycerol, 70 mM NaCl, 800 ng salmon sperm DNA per 10 ul, room temperature 10 min; footprinting same buffer, 4% glycerol, 8000 ng salmon sperm DNA; pull-down 25 mM HEPES pH 7.5, 150 mM NaCl, 10 mM MgCl, 100 uM ZnCl, 10 mM DTT, 48 C. As to conditions: protein: recombinant; chain copies: 6; label: 5'-32P; blunt.

Another data set has as its target T5, MCM-NT (Sulfolobus islandicus REY15A, UniProt F0NF15 1-266).
T5 sequence: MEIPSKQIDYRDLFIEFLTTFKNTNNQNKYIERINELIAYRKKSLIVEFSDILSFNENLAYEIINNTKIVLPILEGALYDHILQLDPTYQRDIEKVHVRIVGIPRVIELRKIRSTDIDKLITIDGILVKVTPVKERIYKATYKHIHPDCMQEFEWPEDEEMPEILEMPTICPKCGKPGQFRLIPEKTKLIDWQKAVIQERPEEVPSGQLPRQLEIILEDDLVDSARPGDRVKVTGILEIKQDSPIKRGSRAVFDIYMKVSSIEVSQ
The data set is described as above. As to conditions: protein: recombinant; tags: C-terminal 6xHis; chain copies: 6; label: 5'-32P; blunt.

A further data set concerns the target T6, UBP;MCM (Sulfolobus islandicus REY15A;Sulfolobus …, UniProt F0NFD3;F0NF15 1-111;1-686, |).
T6 sequence 1: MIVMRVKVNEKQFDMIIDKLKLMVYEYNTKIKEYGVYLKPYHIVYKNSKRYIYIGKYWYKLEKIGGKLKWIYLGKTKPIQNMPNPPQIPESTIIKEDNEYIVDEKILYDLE
T6 sequence 2: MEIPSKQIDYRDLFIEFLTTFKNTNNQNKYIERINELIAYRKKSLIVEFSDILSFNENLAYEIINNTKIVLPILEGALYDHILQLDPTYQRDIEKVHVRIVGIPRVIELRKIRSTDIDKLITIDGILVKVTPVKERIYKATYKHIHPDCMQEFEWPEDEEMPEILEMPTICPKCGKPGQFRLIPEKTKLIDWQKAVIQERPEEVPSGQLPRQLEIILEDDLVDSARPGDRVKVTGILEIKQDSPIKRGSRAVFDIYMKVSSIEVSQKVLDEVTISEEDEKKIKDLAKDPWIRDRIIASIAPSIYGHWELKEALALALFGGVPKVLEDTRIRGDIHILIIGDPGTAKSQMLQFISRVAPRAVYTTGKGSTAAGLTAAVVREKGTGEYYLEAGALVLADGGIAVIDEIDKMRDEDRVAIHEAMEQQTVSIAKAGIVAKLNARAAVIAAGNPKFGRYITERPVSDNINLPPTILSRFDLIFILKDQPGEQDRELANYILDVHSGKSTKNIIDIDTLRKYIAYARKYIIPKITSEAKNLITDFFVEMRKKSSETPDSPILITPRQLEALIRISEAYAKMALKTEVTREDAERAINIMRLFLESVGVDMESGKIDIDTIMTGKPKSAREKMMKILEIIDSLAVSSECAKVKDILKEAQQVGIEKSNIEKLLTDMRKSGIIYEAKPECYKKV
Briefly: EMSA; 370 nM UBP; preferred over naked DNA; EMSA: 50 mM K-acetate, 20 mM Tris-acetate, 10 mM Mg-acetate, 1 mM DTT, pH 7.9, 5-10% glycerol, 70 mM NaCl, 800 ng salmon sperm DNA per 10 ul, room temperature 10 min; footprinting same buffer, 4% glycerol, 8000 ng salmon sperm DNA; pull-down 25 mM HEPES pH 7.5, 150 mM NaCl, 10 mM MgCl, 100 uM ZnCl, 10 mM DTT, 48 C. The following applies: protein: recombinant;recombinant; tags: MBP tag removed by Factor Xa; 3 extra vector residues at N-terminus;; label: 5'-32P; blunt.

A further data set addresses T7, UBP;MCM-NT (Sulfolobus islandicus REY15A;Sulfolobus …, UniProt F0NFD3;F0NF15 1-111;1-266, |).
T7 sequence 1: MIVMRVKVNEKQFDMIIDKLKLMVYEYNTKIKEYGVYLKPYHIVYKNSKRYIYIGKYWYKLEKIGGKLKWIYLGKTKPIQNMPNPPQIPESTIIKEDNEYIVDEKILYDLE
T7 sequence 2: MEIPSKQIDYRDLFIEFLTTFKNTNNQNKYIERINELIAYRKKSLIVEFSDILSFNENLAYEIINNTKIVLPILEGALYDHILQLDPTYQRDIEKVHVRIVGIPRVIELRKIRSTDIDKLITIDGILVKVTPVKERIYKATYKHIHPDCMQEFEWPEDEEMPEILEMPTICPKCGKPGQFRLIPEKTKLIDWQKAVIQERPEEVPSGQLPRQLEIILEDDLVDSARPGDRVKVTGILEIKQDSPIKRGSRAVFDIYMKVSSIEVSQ
Described as above. The following applies: protein: recombinant;recombinant; tags: MBP tag removed by Factor Xa; 3 extra vector residues at N-terminus;C-terminal 6xHis; label: 5'-32P; blunt.

B1: ucm 50 bp WT (P5/P6) (dsDNA)
DNA 1: TTGTTATAATTAGATAACCATTATACAAAAGAATTGTATAAGAATGAAAT
DNA 2: ATTTCATTCTTATACAATTCTTTTGTATAATGGTTATCTAATTATAACAA
B1: the binding result with UBP [1] is reported as “binds”.

B2: 12 bp ucm crystal DNA (P49/P50) (dsDNA)
DNA 1: ATTATACAAAAG
DNA 2: CTTTTGTATAAT
modifications: 5-bromo-dU at positions 2 and 5 of strand 1 and 2 and 9 of strand 2 (written T)
For B2, the binding result with UBP (DNA co-crystal) is on record as “binds”.

B3: Orc1-1 E147A (Walker B mutant) (natural protein, Sulfolobus islandicus REY15A, UniProt F0NBP2 1-397, looked up)
chain: MSDIIDEVISSFRTSSIFVNREYLMPDYIPDELPHRENQIRKIASILAPLYREEKPNNIFIYGLTGTGKTAVVKFVLSRFHKKFLGKFKYIYINTRQIDTPYRVLADLLESLDVKVPFTGLSIAELYRRLVKAIREYDSQVVIVLDAIDAFVKRYNDDILYKLSRINSEVNRSKVSFIGITNDVKFVDLLDPRVKSSLSEEEIVFPPYNAEELEDILTKRAQMAFRPGVLPDNVIRLCAALAAREHGDARRALDLLRVAGEIAERLKDSKVKEEYVHLAKEEIERDRVRDIILTLPFHSKLVLTAVASMSSEDNVVLTTGAVYETYLNICKKLGVEPITQRRVSDIINELDMVGILRAKVVNRGRYGKTKEIGLAVDKNIIVKSLIESDSRFADLWG
notes: Orc1-1 replication initiator, Sulfolobus islandicus REY15A, SiRe_1740
As for B3, the binding result in data set [2] is listed as “binds”.

B4: scr 50 bp (P7/P8) (dsDNA)
DNA 1: ATAATATTTGAAATTAAATGCTTAGTGAATATACGTACAGAATAAAAATT
DNA 2: AATTTTTATTCTGTACGTATATTCACTAAGCATTTAATTTCAAATATTAT
B4: the binding result with UBP [1] is given as “no binding”.

B5: oriC1 140 bp (P21/P22) (dsDNA)
DNA 1: TATTTTGAGCAACATTTTGTTATAATTAGATAACCATTATACAAAAGAATTGTATAAGAATGAAATCAAAGCTTATTTTATGTCACTAGAATCTCCAAATGAAATACTGGGGTAGGCCTTGTTTATGACACAACTTACAT
DNA 2: ATGTAAGTTGTGTCATAAACAAGGCCTACCCCAGTATTTCATTTGGAGATTCTAGTGACATAAAATAAGCTTTGATTTCATTCTTATACAATTCTTTTGTATAATGGTTATCTAATTATAACAAAATGTTGCTCAAAATA
As for B5, the binding result with UBP [3], in the data set with MCM, in the data set with MCM-NT, with UBP;MCM and with UBP;MCM-NT was “binds” throughout.

Values taken from publication PMC12141716, “An archaeal nucleoid-associated protein binds an essential motif in DNA replication origins” (Nature Communications, 2025).
